Laboratory results: publication PMC10516925, “Determining subunit-subunit interaction from statistics of cryo-EM images: observation of nearest-neighbor coupling in a circadian clock protein complex” (Nature Communications, 2023)

Tests used:
KaiC-AA (S431A, T432A) = KaiC-AA (S431A, T432A) (UniProt Q79PF4); test: cryo-EM structure; single-particle cryo-EM of pure KaiC-AA or KaiC-EE, 0.35 ug/ul in 20 mM Tris-HCl (pH 8.0), 150 mM NaCl, 5 mM MgCl2, 0.5 mM EDTA, 1 mM ATP; incubated at 30 °C for 6 h
[1] = molecular target: the molecule itself; test: as above

KaiC-AA (S431A, T432A) (from UniProt Q79PF4 14-484) (natural protein)
stoichiometry N (KaiC-AA (S431A, T432A)): 6

B1: KaiC-EE (S431E, T432E) (natural protein)
chain: EHQAIAKMRTMIEGFDDISHGGLPIGRSTLVSGTSGTGKTLFSIQFLYNGIIEFDEPGVFVTFEETPQDIIKNARSFGWDLAKLVDEGKLFILDASPDPEGQEVVGGFDLSALIERINYAIQKYRARRVSIDSVTSVFQQYDASSVVRRELFRLVARLKQIGATTVMTTERIEEYGPIARYGVEEFVSDNVVILRNVLEGERRRRTLEILKLRGTSHMKGEYPFTITDHGINIFPLGAMRLTQRSSNVRVSSGVVRLDEMCGGGFFKDSIILATGATGTGKTLLVSRFVENACANKERAILFAYEESRAQLLRNAYSWGMDFEEMERQNLLKIVCAYPESAGLEDHLQIIKSEINDFKPARIAIDSLSALARGVSNNAFRQFVIGVTGYAKQEEITGLFTNTSDQFMGAHSITDSHIEEITDTIILLQYVEIRGEMSRAINVFKMRGSWHDKAIREFMISDKGPDIKDSFRNFERIISGSPTRI
notes: source: hexamer fractions selected; not shown: His6, N-terminal, cleaved
stoichiometry N [1]: 6
